According to IntAct's records for PubMed 26258305:

Legend:
tif6a_arath TIFY6A = tif6a_arath TIFY6A (UniProt Q58G47)
tif6b_arath TIFY6B = tif6b_arath TIFY6B (UniProt Q9LVI4)
ti11b_arath TIFY11B = ti11b_arath TIFY11B (UniProt Q9C9E3)
ti11a_arath TIFY11A = ti11a_arath TIFY11A (UniProt Q9LDU5)
tif7_arath TIFY7 = tif7_arath TIFY7 (UniProt Q8W4J8)
ti10b_arath TIFY10B = ti10b_arath TIFY10B (UniProt Q9S7M2)
tif5a_arath TIFY5A = tif5a_arath TIFY5A (UniProt Q8LBM2)
tif3b_arath TIFY3B = tif3b_arath TIFY3B (UniProt Q9C5K8)
tif3b_arath TIFY3B, sequence (Q9C5K8 whole entry): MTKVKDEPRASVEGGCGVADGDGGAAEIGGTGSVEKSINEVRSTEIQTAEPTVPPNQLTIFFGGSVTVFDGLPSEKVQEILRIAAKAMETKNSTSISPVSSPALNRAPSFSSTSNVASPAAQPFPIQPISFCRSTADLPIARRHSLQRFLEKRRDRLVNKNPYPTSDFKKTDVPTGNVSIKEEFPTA

tif3a_arath TIFY3A = tif3a_arath TIFY3A (UniProt Q9M246)
tif3a_arath TIFY3A, sequence (Q9M246 whole entry): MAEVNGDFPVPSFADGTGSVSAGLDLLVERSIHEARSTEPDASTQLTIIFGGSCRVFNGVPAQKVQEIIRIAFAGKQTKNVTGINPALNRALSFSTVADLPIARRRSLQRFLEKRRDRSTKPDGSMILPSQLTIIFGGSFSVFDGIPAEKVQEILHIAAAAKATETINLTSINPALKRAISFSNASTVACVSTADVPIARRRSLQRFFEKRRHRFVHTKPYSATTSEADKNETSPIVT

ti10a_arath TIFY10A = ti10a_arath TIFY10A (UniProt Q9LMA8)
tif9_arath TIFY9 = tif9_arath TIFY9 (UniProt Q93ZM9)
tif9_arath TIFY9, sequence (Q93ZM9 whole entry): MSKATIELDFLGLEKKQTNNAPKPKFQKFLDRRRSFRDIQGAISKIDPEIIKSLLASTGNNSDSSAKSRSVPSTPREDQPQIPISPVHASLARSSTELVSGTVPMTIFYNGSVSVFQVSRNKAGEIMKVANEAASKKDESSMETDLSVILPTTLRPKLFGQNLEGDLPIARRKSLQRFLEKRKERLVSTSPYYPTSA

tif7_arath TIFY7, sequence (Q8W4J8 whole entry): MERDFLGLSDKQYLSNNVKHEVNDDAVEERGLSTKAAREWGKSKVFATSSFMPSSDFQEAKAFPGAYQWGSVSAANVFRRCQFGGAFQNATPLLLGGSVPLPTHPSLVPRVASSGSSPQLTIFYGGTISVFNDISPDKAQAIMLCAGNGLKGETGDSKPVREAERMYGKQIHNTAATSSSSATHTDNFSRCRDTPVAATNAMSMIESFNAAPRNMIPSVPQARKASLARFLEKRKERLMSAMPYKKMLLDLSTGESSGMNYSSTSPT
ti11b_arath TIFY11B, sequence (Q9C9E3 whole entry): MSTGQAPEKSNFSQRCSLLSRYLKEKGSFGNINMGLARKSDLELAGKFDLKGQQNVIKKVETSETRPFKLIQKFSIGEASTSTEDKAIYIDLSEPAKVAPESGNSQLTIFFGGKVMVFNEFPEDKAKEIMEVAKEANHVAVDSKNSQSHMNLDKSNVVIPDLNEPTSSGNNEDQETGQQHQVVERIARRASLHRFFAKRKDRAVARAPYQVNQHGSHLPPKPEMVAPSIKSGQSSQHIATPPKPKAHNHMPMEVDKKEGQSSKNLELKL
Transcription factor MYC3 (Arabidopsis thaliana (Mouse-ear cress)), Q9FIP9 D94A;Y97A, sequence (Q9FIP9 whole entry D94A/Y97A): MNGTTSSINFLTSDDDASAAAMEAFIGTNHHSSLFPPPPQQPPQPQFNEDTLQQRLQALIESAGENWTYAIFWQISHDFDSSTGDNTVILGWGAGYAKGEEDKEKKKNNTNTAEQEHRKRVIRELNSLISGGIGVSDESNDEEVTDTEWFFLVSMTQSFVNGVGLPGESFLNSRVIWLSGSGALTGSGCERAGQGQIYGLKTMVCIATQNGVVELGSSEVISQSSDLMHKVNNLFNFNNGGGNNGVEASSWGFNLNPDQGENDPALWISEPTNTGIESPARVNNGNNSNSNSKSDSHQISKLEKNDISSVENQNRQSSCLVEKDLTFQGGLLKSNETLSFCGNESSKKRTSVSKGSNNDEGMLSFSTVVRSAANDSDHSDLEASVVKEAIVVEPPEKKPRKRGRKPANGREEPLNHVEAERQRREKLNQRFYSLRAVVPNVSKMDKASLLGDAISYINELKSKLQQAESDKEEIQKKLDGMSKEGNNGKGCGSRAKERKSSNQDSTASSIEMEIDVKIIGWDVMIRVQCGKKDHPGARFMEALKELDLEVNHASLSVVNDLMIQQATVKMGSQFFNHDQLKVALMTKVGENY
tif5a_arath TIFY5A, sequence (Q8LBM2 whole entry): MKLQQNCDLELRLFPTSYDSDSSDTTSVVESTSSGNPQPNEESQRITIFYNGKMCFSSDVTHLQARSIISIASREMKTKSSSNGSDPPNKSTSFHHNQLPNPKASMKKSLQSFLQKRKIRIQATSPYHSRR
Transcription factor MYC3 (Arabidopsis thaliana (Mouse-ear cress)), Q9FIP9 F151A;L152A;M155A, sequence (Q9FIP9 whole entry F151A/L152A/M155A): as the sequence (Q9FIP9 whole entry D94A/Y97A) above, with A94D, A97Y, F151A, L152A, M155A counted along it
Transcription factor MYC3 (Arabidopsis thaliana (Mouse-ear cress)), Q9FIP9 L152A, sequence (Q9FIP9 whole entry L152A): as the sequence (Q9FIP9 whole entry D94A/Y97A) above, with A94D, A97Y, L152A counted along it
Transcription factor MYC3 (Arabidopsis thaliana (Mouse-ear cress)), Q9FIP9 D94N, sequence (Q9FIP9 whole entry D94N): as the sequence (Q9FIP9 whole entry D94A/Y97A) above, with A94N, A97Y counted along it
Transcription factor MYC3 (Arabidopsis thaliana (Mouse-ear cress)), Q9FIP9 L152A;M155A, sequence (Q9FIP9 whole entry L152A/M155A): as the sequence (Q9FIP9 whole entry D94A/Y97A) above, with A94D, A97Y, L152A, M155A counted along it
Transcription factor MYC3 (Arabidopsis thaliana (Mouse-ear cress)), Q9FIP9 M155A, sequence (Q9FIP9 whole entry M155A): as the sequence (Q9FIP9 whole entry D94A/Y97A) above, with A94D, A97Y, M155A counted along it

effect of a mutation on the interaction (tif6a_arath TIFY6A)	effect of a mutation on the interaction (tif6b_arath TIFY6B)	effect of a mutation on the interaction (ti11b_arath TIFY11B)	effect of a mutation on the interaction (ti11a_arath TIFY11A)	effect of a mutation on the interaction (tif7_arath TIFY7)	effect of a mutation on the interaction (ti10b_arath TIFY10B)	effect of a mutation on the interaction (tif5a_arath TIFY5A)	effect of a mutation on the interaction (tif3b_arath TIFY3B)	effect of a mutation on the interaction (tif3a_arath TIFY3A)	effect of a mutation on the interaction (ti10a_arath TIFY10A)	effect of a mutation on the interaction (tif9_arath TIFY9)	Substance
disrupting interaction strength											Transcription factor MYC3 (Arabidopsis thaliana (Mouse-ear cress)), Q9FIP9 D94A
decreasing interaction strength	decreasing interaction strength	decreasing interaction strength	decreasing interaction strength	decreasing interaction strength							Transcription factor MYC3 (Arabidopsis thaliana (Mouse-ear cress)), Q9FIP9 D94A;Y97A
disrupting interaction strength	disrupting interaction strength			disrupting interaction strength							Transcription factor MYC3 (Arabidopsis thaliana (Mouse-ear cress)), Q9FIP9 D94N
disrupting interaction strength	disrupting interaction strength	decreasing interaction strength	disrupting interaction strength	decreasing interaction strength	decreasing interaction strength	decreasing interaction strength	disrupting interaction strength	decreasing interaction strength	decreasing interaction strength	decreasing interaction strength	Transcription factor MYC3 (Arabidopsis thaliana (Mouse-ear cress)), Q9FIP9 F151A
disrupting interaction strength	disrupting interaction strength	disrupting interaction strength	disrupting interaction strength	disrupting interaction strength	disrupting interaction strength	disrupting interaction strength	disrupting interaction strength	disrupting interaction strength	disrupting interaction strength	disrupting interaction strength	Transcription factor MYC3 (Arabidopsis thaliana (Mouse-ear cress)), Q9FIP9 F151A;L152A
disrupting interaction strength	disrupting interaction strength	disrupting interaction strength	disrupting interaction strength	disrupting interaction strength	disrupting interaction strength	disrupting interaction strength	disrupting interaction strength	disrupting interaction strength	disrupting interaction strength	disrupting interaction strength	Transcription factor MYC3 (Arabidopsis thaliana (Mouse-ear cress)), Q9FIP9 F151A;L152A;M155A
disrupting interaction strength	disrupting interaction strength	decreasing interaction strength	disrupting interaction strength	disrupting interaction strength	disrupting interaction strength	disrupting interaction strength	disrupting interaction strength	disrupting interaction strength	decreasing interaction strength	decreasing interaction strength	Transcription factor MYC3 (Arabidopsis thaliana (Mouse-ear cress)), Q9FIP9 F151A;M155A
disrupting interaction strength	disrupting interaction strength	decreasing interaction strength	disrupting interaction strength	disrupting interaction strength	decreasing interaction strength		disrupting interaction strength	decreasing interaction strength	decreasing interaction strength	decreasing interaction strength	Transcription factor MYC3 (Arabidopsis thaliana (Mouse-ear cress)), Q9FIP9 L152A
disrupting interaction strength	disrupting interaction strength	disrupting interaction strength	disrupting interaction strength	disrupting interaction strength	disrupting interaction strength	disrupting interaction strength	disrupting interaction strength	disrupting interaction strength	disrupting interaction strength	disrupting interaction strength	Transcription factor MYC3 (Arabidopsis thaliana (Mouse-ear cress)), Q9FIP9 L152A;M155A
disrupting interaction strength	disrupting interaction strength	decreasing interaction strength	decreasing interaction strength	disrupting interaction strength			disrupting interaction strength				Transcription factor MYC3 (Arabidopsis thaliana (Mouse-ear cress)), Q9FIP9 M155A
disrupting interaction strength											Transcription factor MYC3 (Arabidopsis thaliana (Mouse-ear cress)), Q9FIP9 W92A
disrupting interaction strength											Transcription factor MYC3 (Arabidopsis thaliana (Mouse-ear cress)), Q9FIP9 W92A;D94A
disrupting interaction strength	disrupting interaction strength	disrupting interaction strength	disrupting interaction strength	disrupting interaction strength	disrupting interaction strength	disrupting interaction strength	disrupting interaction strength	disrupting interaction strength	disrupting interaction strength	disrupting interaction strength	Transcription factor MYC3 (Arabidopsis thaliana (Mouse-ear cress)), Q9FIP9 W92A;D94A;Y97A
disrupting interaction strength	disrupting interaction strength	disrupting interaction strength	disrupting interaction strength	disrupting interaction strength	disrupting interaction strength	decreasing interaction strength	disrupting interaction strength	decreasing interaction strength	decreasing interaction strength	decreasing interaction strength	Transcription factor MYC3 (Arabidopsis thaliana (Mouse-ear cress)), Q9FIP9 W92A;Y97A
disrupting interaction strength											Transcription factor MYC3 (Arabidopsis thaliana (Mouse-ear cress)), Q9FIP9 Y97A
